{
  "source": "patent US20130252251A1",
  "about": "(CENTRE NATIONAL DE LA RECHERCHE SCIENTIFIQUE, published 2013)",
  "molecules": {"B1": {"name": "Amphotropic Murine Leukemia Retrovirus receptor-binding domain (AMLV RBD) (ligand)", "chain": "AESPHQVFNVTWRVTNLMTGRTANATSLLGTVQDAFPKLYFDLCDLVGEEWDPSDQEPYVGYGCKYPAGRQRTRTFDFYVCPGHTVKSGCGGPGEGYCGKWGCETTGQAYWKPTSSWDLISLKRGNTPWDTGCSKVACGPCYDLSKVSNSFQGATRGGRCNPLVLEFTDAGKKANWDGPKSWGLRLYRTGTDPITMFSLTRQVLNVGPRVPIGPNPVLPDQRLPSSPIEIVPAPQPPSPLNTSYPPSTTSTPSTSPTSPSVPQPPPGTGDRLLALVKGAYQALNLTNPDKTQECWLC", "notes": "not shown: tag: EGFP, mouse-IgG Fc or rabbit-IgG Fc"}, "B2": {"name": "Human T Leukaemia Virus-2 receptor-binding domain (HTLV-2 RBD) (ligand)", "chain": "QQSRCTLTVGISSYHSSPCSPTQPVCTWNLDLNSLTTDQRLHPPCPNLITYSGFHKTYSLYLFPHWIKKPNRQGLGYYSPSYNDPCSLQCPYLGCQSWTCPYTGPVSSPSWKFHSDVNFTQEVSQVSLRLHFSKCGSSMTLLVDAPGYDPLWFITSEPTQPPPTSPPLVHDSDLEHVLTPSTSWTTKILKFIQLTLQSTNYSCMVC", "notes": "as for B1"}, "B3": {"name": "Feline endogenous retrovirus receptor-binding domain (RD114 RBD) (ligand)", "chain": "GFDDPRKAIALVQKQHGKPCECSGGQVSEAPPNSIQQVTCPGKTAYLMTNQKWKCRVTPKISPSGGELQNCPCNTFQDSMHSSCYTEYRQCRRINKTYYTATLLKIRSGSLNEVQILQNPNQLLQSPCRGSINQPVCWSATAPIHISDGGGPLDTKRVWTVQKRLEQIHKAMTPELQYHPLALPKVRDDLSLDARTFDILNTTFRLLQMSNFSLAQDCWLC", "notes": "as for B1"}, "B4": {"name": "Koala endogeneous Retrovirus receptor-binding domain (KoRV RBD) (ligand)", "chain": "NQQHNNPHQPMTLTWQVLSQTGSVVWEKKAVEPPWTWWPSLEPDVCALVAGLESWDIPELTASASQQARPPDSNYEHAYNQITWGTLGCSYPRARTRIARSQFYVCPRDGRSLSEARRCGGLESLYCKEWGCETAGTAYWQPRSSWDLITVGQGHPTGTCERTGWCNPLKIEFTEPGKRFRNWLQGRTWGLRFYVTGHPGVQLTIRLVITSPPPVVVGPDPVLAEQGPPRKIPFLPRVPVPTLSPPASPIPTVQASPPAPSTPSPTTGDRLFGLVQGAFLALNATNPEATESCWLC", "notes": "as for B1"}},
  "key": {"[1]": {"biological_target": "membrane receptor interacting with BLV", "assay": "flow cytometry, tagged RBD on blood neutrophils of one CF patient"}, "[2]": {"biological_target": "membrane receptor interacting with BLV", "assay": "flow cytometry, tagged RBD on sputum neutrophils of one CF patient"}, "[3]": {"biological_target": "membrane receptor interacting with BLV", "assay": "flow cytometry, tagged RBD on blood neutrophils of healthy control donors (N=8)"}, "[4]": {"biological_target": "membrane receptor interacting with BLV", "assay": "flow cytometry, tagged RBD on blood neutrophils of rheumatoid arthritis patients (N=9)"}, "[5]": {"biological_target": "PAR (PeRV A Receptor) receptors: human Riboflavin Transporter 1 (hRFT1 or PAR2) and hRFT3 (or PAR1)", "assay": "flow cytometry, tagged RBD on blood neutrophils of one CF patient"}, "[6]": {"biological_target": "PAR (PeRV A Receptor) receptors: human Riboflavin Transporter 1 (hRFT1 or PAR2) and hRFT3 (or PAR1)", "assay": "flow cytometry, tagged RBD on sputum neutrophils of one CF patient"}, "[7]": {"biological_target": "PAR (PeRV A Receptor) receptors: human Riboflavin Transporter 1 (hRFT1 or PAR2) and hRFT3 (or PAR1)", "assay": "flow cytometry, tagged RBD on blood neutrophils of healthy control donors (N=8)"}, "[8]": {"biological_target": "PAR (PeRV A Receptor) receptors: human Riboflavin Transporter 1 (hRFT1 or PAR2) and hRFT3 (or PAR1)", "assay": "flow cytometry, tagged RBD on blood neutrophils of rheumatoid arthritis patients (N=9)"}, "PiT2 membrane receptor [9]": {"biological_target": "T1, PiT2 membrane receptor (human, UniProt Q08357 1-652)", "T1 construct": "whole, on cells; Endogenous receptor on primary blood or sputum neutrophils; also called FiT2", "T1 sequence": "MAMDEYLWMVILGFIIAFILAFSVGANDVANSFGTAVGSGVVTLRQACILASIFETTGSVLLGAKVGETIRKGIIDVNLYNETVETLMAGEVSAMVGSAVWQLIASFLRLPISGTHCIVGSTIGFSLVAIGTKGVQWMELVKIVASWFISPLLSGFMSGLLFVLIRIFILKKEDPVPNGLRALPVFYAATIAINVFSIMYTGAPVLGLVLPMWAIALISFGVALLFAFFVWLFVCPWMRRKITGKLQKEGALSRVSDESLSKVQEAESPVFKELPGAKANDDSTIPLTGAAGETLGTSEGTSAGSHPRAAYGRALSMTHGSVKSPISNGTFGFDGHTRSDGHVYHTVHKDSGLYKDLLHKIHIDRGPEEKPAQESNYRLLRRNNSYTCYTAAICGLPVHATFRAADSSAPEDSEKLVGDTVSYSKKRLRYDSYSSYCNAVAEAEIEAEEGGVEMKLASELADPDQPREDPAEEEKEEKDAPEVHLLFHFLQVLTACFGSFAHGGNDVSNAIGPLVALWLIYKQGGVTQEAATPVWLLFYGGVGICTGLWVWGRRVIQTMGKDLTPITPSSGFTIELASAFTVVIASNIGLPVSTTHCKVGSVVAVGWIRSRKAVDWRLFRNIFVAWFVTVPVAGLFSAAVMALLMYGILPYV", "assay": "flow cytometry, tagged RBD on blood neutrophils of healthy control donors (N=8)"}, "PiT2 membrane receptor [10]": {"biological_target": "T1, PiT2 membrane receptor", "assay": "flow cytometry, tagged RBD on blood neutrophils of rheumatoid arthritis patients (N=9)"}, "GLUT1 membrane receptor [11]": {"biological_target": "T2, GLUT1 membrane receptor (human, UniProt P11166 1-492)", "T2 construct": "whole, on cells; Endogenous receptor on primary blood or sputum neutrophils", "T2 sequence": "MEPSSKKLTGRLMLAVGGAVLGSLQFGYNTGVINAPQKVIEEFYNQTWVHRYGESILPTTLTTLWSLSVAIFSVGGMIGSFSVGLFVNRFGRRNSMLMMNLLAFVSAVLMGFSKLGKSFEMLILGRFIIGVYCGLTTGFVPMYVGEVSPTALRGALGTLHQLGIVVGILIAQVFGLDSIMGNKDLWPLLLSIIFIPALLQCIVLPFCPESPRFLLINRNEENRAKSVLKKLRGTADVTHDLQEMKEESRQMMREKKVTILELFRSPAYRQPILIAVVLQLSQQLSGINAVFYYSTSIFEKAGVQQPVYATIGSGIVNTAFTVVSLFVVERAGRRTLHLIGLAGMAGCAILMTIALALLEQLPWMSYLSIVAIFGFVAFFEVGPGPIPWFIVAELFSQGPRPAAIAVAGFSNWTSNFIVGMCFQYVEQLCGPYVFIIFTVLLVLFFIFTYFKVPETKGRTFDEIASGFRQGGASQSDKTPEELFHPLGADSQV", "assay": "flow cytometry, tagged RBD on blood neutrophils of healthy control donors (N=8)"}, "GLUT1 membrane receptor [12]": {"biological_target": "T2, GLUT1 membrane receptor", "assay": "flow cytometry, tagged RBD on blood neutrophils of rheumatoid arthritis patients (N=9)"}, "ASCT2 membrane receptor [13]": {"biological_target": "T3, ASCT2 membrane receptor (human, UniProt Q15758 1-541)", "T3 construct": "whole, on cells; Endogenous receptor on primary blood or sputum neutrophils; also called ASTC2", "T3 sequence": "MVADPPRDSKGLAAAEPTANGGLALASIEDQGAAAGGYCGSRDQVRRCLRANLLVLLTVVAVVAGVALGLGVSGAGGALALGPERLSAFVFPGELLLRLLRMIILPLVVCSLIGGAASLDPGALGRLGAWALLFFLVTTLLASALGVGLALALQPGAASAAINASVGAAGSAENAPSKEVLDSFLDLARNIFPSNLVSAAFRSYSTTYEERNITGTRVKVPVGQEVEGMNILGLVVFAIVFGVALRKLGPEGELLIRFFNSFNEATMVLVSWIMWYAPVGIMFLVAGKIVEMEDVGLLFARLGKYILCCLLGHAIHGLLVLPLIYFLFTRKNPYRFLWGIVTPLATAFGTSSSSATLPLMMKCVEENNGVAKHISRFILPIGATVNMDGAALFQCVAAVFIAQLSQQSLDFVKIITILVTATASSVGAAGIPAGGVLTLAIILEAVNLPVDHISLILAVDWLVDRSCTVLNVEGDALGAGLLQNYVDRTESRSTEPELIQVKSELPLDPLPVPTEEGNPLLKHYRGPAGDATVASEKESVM", "assay": "flow cytometry, tagged RBD on blood neutrophils of healthy control donors (N=8)"}, "ASCT2 membrane receptor [14]": {"biological_target": "T3, ASCT2 membrane receptor", "assay": "flow cytometry, tagged RBD on blood neutrophils of rheumatoid arthritis patients (N=9)"}, "PiT1 membrane receptor [15]": {"biological_target": "T4, PiT1 membrane receptor (human, UniProt Q8WUM9 1-679)", "T4 construct": "whole, on cells; Endogenous receptor on primary blood or sputum neutrophils", "T4 sequence": "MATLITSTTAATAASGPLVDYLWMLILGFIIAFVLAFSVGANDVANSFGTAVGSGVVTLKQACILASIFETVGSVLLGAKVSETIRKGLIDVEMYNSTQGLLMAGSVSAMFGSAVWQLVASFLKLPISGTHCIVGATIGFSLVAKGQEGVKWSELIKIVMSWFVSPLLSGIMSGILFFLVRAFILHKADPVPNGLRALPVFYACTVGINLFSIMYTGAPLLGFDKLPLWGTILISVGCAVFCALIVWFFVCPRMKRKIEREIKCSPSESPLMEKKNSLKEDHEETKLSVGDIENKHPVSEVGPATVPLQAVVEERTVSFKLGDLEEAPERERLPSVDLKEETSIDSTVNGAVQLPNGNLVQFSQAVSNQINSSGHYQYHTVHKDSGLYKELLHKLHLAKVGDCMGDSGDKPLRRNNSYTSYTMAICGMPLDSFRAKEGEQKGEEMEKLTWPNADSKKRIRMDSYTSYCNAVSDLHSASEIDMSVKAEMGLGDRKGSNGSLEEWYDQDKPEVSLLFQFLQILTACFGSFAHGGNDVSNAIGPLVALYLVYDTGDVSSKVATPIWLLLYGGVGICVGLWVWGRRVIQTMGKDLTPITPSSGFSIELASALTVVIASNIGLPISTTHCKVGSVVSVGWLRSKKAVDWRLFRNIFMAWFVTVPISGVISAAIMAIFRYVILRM", "assay": "flow cytometry, tagged RBD on blood neutrophils of healthy control donors (N=8)"}, "PiT1 membrane receptor [16]": {"biological_target": "T4, PiT1 membrane receptor", "assay": "flow cytometry, tagged RBD on blood neutrophils of rheumatoid arthritis patients (N=9)"}},
  "data": [
    {"molecule": "Bovine Leukaemia Virus receptor-binding domain (BLV RBD) (from UniProt P25507 34-215) (ligand)", "values": [
      {"measurement": "deltaGeomean of fluorescence", "setting": "[1]", "result": 0},
      {"measurement": "deltaGeomean of fluorescence", "setting": "[2]", "result": 140},
      {"measurement": "deltaMedian of fluorescence (median)", "setting": "[3]", "result": 3550},
      {"measurement": "deltaMedian of fluorescence (median)", "setting": "[4]", "result": 2750}
    ]},
    {"molecule": "Porcine Endogeneous Retrovirus-A receptor-binding domain (PERVA RBD) (ligand)", "values": [
      {"measurement": "deltaGeomean of fluorescence", "setting": "[5]", "result": 4160},
      {"measurement": "deltaGeomean of fluorescence", "setting": "[6]", "result": 284},
      {"measurement": "deltaMedian of fluorescence (median)", "setting": "[7]", "result": 3740},
      {"measurement": "deltaMedian of fluorescence (median)", "setting": "[8]", "result": 2320}
    ]},
    {"molecule": "B1", "values": [
      {"measurement": "deltaMedian of fluorescence (median)", "setting": "PiT2 membrane receptor [9]", "result": 3930},
      {"measurement": "deltaMedian of fluorescence (median)", "setting": "PiT2 membrane receptor [10]", "result": 2860}
    ]},
    {"molecule": "B2", "values": [
      {"measurement": "deltaMedian of fluorescence (median)", "setting": "GLUT1 membrane receptor [11]", "result": 4670},
      {"measurement": "deltaMedian of fluorescence (median)", "setting": "GLUT1 membrane receptor [12]", "result": 3180}
    ]},
    {"molecule": "B3", "values": [
      {"measurement": "deltaMedian of fluorescence (median)", "setting": "ASCT2 membrane receptor [13]", "result": 1630},
      {"measurement": "deltaMedian of fluorescence (median)", "setting": "ASCT2 membrane receptor [14]", "result": 1650}
    ]},
    {"molecule": "B4", "values": [
      {"measurement": "deltaMedian of fluorescence (median)", "setting": "PiT1 membrane receptor [15]", "result": 2640},
      {"measurement": "deltaMedian of fluorescence (median)", "setting": "PiT1 membrane receptor [16]", "result": 1880}
    ]}
  ]
}
